From US20220218785A1 (ALPINE IMMUNE SCIENCES, published 2022)
Like-named read-outs stand apart in the source and are kept apart here.

T1: human ICOS (human, UniProt Q9Y6W8 21-199)
T1 construct: whole, on cells
T1 sequence (looked up): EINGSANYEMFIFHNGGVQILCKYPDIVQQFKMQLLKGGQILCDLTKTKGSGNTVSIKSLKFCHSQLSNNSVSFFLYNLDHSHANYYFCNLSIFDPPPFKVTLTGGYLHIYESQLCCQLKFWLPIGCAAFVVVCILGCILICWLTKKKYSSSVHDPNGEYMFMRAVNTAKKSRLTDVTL

B1: ICOSL ECD with N52H/N57Y/Q100R/F172S, Fc fusion with (G4S)2 linker (Fc fusion)
chain: DTQEKEVRAMVGSDVELSCACPEGSRFDLNDVYVYWQTSESKTVVTYHIPQHSSLEYVDSRYRNRALMSPAGMLRGDFSLRLFNVTPQDEQKFHCLVLSRSLGFQEVLSVEVTLHVAANFSVPVVSAPHSPSQDELTFTCTSINGYPRPNVYWINKTDNSLLDQALQNDTVSLNMRGLYDVVSVLRIARTPSVNIGCCIENVLLQQNLTVGSQTGNDIGERDKITENPVSTGEKNAATGGGGSGGGGSEPKSSDKTHTCPPCPAPEAEGAPSVFLFPPKPKDTLMISRTPEVTCVVVDVSHEDPEVKFNWYVDGVEVHNAKTKPREEQYNSTYRVVSVLTVLHQDWLNGKEYKCKVSNKALPAPIEKTISKAKGQPREPQVYTLPPSREEMTKNQVSLTCLVKGFYPSDIAVEWESNGQPENNYKTTPPVLDSDGSFFLYSKLTVDKSRWQQGNVFSCSVMHEALHNHYTQKSLSLSPG
notes: also called ICOSCL ECD with N52H/N57Y/Q100R/F1725
B2: ICOSL ECD Truncation #4 with N52H/N57Y/Q100R/F172S, Fc fusion (Fc fusion)
chain: DTQEKEVRAMVGSDVELSCACPEGSRFDLNDVYVYWQTSESKTVVTYHIPQHSSLEYVDSRYRNRALMSPAGMLRGDFSLRLFNVTPQDEQKFHCLVLSRSLGFQEVLSVEVTLHVAANFSVPVVSAPHSPSQDELTFTCTSINGYPRPNVYWINKTDNSLLDQALQNDTVSLNMRGLYDVVSVLRIARTPSVNIGCCIENVLLQQNGGGGSGGGGSEPKSSDKTHTCPPCPAPEAEGAPSVFLFPPKPKDTLMISRTPEVTCVVVDVSHEDPEVKFNWYVDGVEVHNAKTKPREEQYNSTYRVVSVLTVLHQDWLNGKEYKCKVSNKALPAPIEKTISKAKGQPREPQVYTLPPSREEMTKNQVSLTCLVKGFYPSDIAVEWESNGQPENNYKTTPPVLDSDGSFFLYSKLTVDKSRWQQGNVFSCSVMHEALHNHYTQKSLSLSPG
B3: ICOSL ECD with N52H/N57Y/Q100R/C198R, Fc C220S/L234A/L235E/G237A (SEQ ID NO: 40) (Fc fusion, not shown: small tags and cut ends)
chain (part 1 of 2): DTQEKEVRAMVGSDVELSCACPEGSRFDLNDVYVYWQTSESKTVVTYHIPQHSSLEYVDSRYRNRALMSPAGMLRGDFSLRLFNVTPQDEQKFHCLVLSRSLGFQEVLSVEVTLHVAANFSVPVVSAPHSPSQDELTFTCTSINGYPRPNVYWINKTDNSLLDQALQNDTVFLNMRGLYDVVSVLRIARTPSVNIGCRIENVLLQQNLTVGSQTGNDIGERDKITENPVSTGEKNAAT
chain (part 2 of 2): EPKSSDKTHTCPPCPAPEAEGAPSVFLFPPKPKDTLMISRTPEVTCVVVDVSHEDPEVKFNWYVDGVEVHNAKTKPREEQYNSTYRVVSVLTVLHQDWLNGKEYKCKVSNKALPAPIEKTISKAKGQPREPQVYTLPPSREEMTKNQVSLTCLVKGFYPSDIAVEWESNGQPENNYKTTPPVLDSDGSFFLYSKLTVDKSRWQQGNVFSCSVMHEALHNHYTQKSLSLSPGK

Tests used:
[1] = target: CD86 labeled with AlexaFluor-647 (UniProt P42081); experiment: competition, flow cytometry: labelled CD86 on CHO cells expressing CD28
[2] = target: CD80 (ligand of the blocking assay) (UniProt P33681); experiment: competition, flow cytometry: CD80 on CHO cells expressing CD28
[3] = target: human CD28, full-length, on transfected cells (human) (UniProt P10747); experiment: flow cytometry on transfected HEK293 cells
[4] = target: T2, human CTLA-4 (human, UniProt P16410 36-223); experiment: flow cytometry, cells with human CTLA-4; protein from CHO
T2 construct: whole, on cells

[5] = target: human CD28 (human) (UniProt P10747); experiment: flow cytometry, cells with human CD28; protein from CHO
[6] = target: T1, human ICOS; experiment: flow cytometry, cells with human ICOS; protein from CHO
[7] = target: T1, human ICOS; experiment: as above; remark: listed apart in the source
[8] = target: T3, human CD28 (human, UniProt P10747 19-220); experiment: flow cytometry, cells with human CD28; protein from 293
T3 construct: whole, on cells

[9] = target: T3, human CD28; experiment: flow cytometry, cells with human CD28; protein from CHO
[10] = target: T2, human CTLA-4; experiment: flow cytometry, cells with human CTLA-4; protein from 293
[11] = target: T1, human ICOS; experiment: flow cytometry, cells with human ICOS; protein from 293
[12] = target: T3, human CD28; experiment: flow cytometry, cells with human CD28; protein from CHO; remark: listed apart in the source
[13] = target: T2, human CTLA-4; experiment: flow cytometry, cells with human CTLA-4; protein from CHO; remark: listed apart in the source
[14] = target: T1, human ICOS; experiment: flow cytometry, cells with human ICOS; protein from CHO; remark: listed apart in the source
[15] = target: T2, human CTLA-4; experiment: flow cytometry, cells with human CTLA-4; protein from CHO; remark: listed apart in the source

T2 sequence (P16410 36-223): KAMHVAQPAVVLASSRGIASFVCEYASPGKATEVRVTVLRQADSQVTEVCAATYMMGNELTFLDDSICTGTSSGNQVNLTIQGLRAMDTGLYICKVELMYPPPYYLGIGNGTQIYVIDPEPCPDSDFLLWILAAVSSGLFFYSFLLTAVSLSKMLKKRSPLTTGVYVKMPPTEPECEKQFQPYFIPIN
CD86 labeled with AlexaFluor-647, sequence (P42081 24-247 limits assumed): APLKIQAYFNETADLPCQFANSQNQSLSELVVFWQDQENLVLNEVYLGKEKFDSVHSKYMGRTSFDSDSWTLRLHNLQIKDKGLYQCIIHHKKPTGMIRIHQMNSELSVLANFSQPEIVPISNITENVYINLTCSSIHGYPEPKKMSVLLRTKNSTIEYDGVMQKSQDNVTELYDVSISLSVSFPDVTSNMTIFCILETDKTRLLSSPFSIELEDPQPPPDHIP
CD80 (ligand of the blocking assay), sequence (P33681 35-242 limits assumed): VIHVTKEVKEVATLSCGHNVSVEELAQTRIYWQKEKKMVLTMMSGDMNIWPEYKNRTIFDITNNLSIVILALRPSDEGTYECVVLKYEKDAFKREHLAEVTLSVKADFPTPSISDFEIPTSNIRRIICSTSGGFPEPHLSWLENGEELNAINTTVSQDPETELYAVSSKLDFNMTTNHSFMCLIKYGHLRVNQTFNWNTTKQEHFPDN

Molecule | MFI (ΔWT) [7] | MFI (ΔWT) [8] | MFI (ΔWT) [9] | MFI (ΔWT) [10] | MFI (ΔWT) [11] | MFI (ΔWT) [12] | MFI (ΔWT) [13] | MFI (ΔWT) [14] | MFI (ΔWT) [15] | also measured
belatacept (Fc fusion) | – | – | – | – | – | – | – | – | – | IC50 [1]: 2.8 nM; IC50 [2]: 2.5 nM
variant ICOSL ECD-Fc M10I, S13G, N52H, N57Y, D77G, V110A, H129P, I143V, F172S, V193M, C198R (Fc fusion) | – | – | – | – | – | – | – | – | – | MFI [3]: 6000 MFI
ICOSL ECD Truncation #8 with N207G/L208G and N52H/N57Y/Q100R/C198R and Y151H (from UniProt O75144 19-224) (Fc fusion) | – | – | – | – | – | – | – | – | – | MFI [4]: 368000 MFI; MFI (ΔWT) [4]: 48.6 fold vs WT; MFI [5]: 94200 MFI; MFI (ΔWT) [5]: 54.5 fold vs WT; MFI [6]: 143000 MFI
B1 | 1.4 fold vs WT | 3.6 fold vs WT | 4.1 fold vs WT | 0.7 fold vs WT | 1.4 fold vs WT | 63.9 fold vs WT | 42.6 fold vs WT | 1.1 fold vs WT | 0.7 fold vs WT | –
B2 | 1.3 fold vs WT | 4.1 fold vs WT | 3.6 fold vs WT | 0.7 fold vs WT | 0.6 fold vs WT | 39.7 fold vs WT | 49.8 fold vs WT | 0.7 fold vs WT | 0.7 fold vs WT | –
B3 | – | – | – | 0.7 fold vs WT | – | – | – | 0.7 fold vs WT | 0.7 fold vs WT | MFI [10]: 8720 MFI; MFI [14]: 7700 MFI; MFI [15]: 8750 MFI
